Data on six molecules can be found in publication PMC4059916, “VARP Is Recruited on to Endosomes by Direct Interaction with Retromer, Where Together They Function in Export to the Cell Surface” (Developmental Cell, 2014).

B2: Rab32 1-225 (Q85L), GTP hydrolysis-defective mutant, GST removed (enzyme, UniProt Q13637 1-225, looked up)
chain: MAGGGAGDPGLGAAAAPAPETREHLFKVLVIGELGVGKTSIIKRYVHQLFSQHYRATIGVDFALKVLNWDSRTLVRLQLWDIAGLERFGNMTRVYYKEAVGAFVVFDISRSSTFEAVLKWKSDLDSKVHLPNGSPIPAVLLANKCDQNKDSSQSPSQVDQFCKEHGFAGWFETSAKDNINIEEAARFLVEKILVNHQSFPNEENDVDKIKLDQETLRAENKSQCC
notes: Rab32, residues 1-225; limits 1-225 are printed for the crystallised construct; also called Rab32(Q85L); Rab32Q85L

Common to all, as to conditions: both partners purified
The target of experiment [1] is VPS29, recombinant, as used in ITC (UniProt Q9UBQ0 1-182). Nature of the experiment: ITC; recombinant VARP Cys-rich motif fragments and VPS29; who was titrated is not told.
In experiment [2] the target is T1, VARP fragment, residues 397-650 (human, UniProt Q96NW4 397-650).
T1 construct: VARP (VPS9-domain ankyrin repeat protein; 1,050 residues), residues 397-650, contains ANKRD1; source: E. coli Rosetta 2 pLysS, purified (GSH-sepharose, PreScission cleavage, Superdex 75)
Nature of the experiment: ITC; Nano ITC; VARP constructs at 60 μM in the cell at 4°C, Rab constructs at 300 μM titrated, 24 injections of 2 μl; 50 mM HEPES pH 7.4, 200 mM NaCl, 5 mM MgCl2, 1 mM TCEP.

Experiment [3] concerns the target B2. Described as above.
Experiment [4] has as its target T2, SeMet-Rab32 1-225 (Q85L/V100M/Q153M/V158M/I192M) (UniProt Q13637 1-225, Q85L | V100M | Q153M | V158M | I192M, selenomethionine (SeMet protein)).
T2 construct: Rab32 residues 1-225; also called SeMet-Rab32Q85L; source: E. coli B834, M9 media (seleno-methionine), purified
T2 sequence (looked up): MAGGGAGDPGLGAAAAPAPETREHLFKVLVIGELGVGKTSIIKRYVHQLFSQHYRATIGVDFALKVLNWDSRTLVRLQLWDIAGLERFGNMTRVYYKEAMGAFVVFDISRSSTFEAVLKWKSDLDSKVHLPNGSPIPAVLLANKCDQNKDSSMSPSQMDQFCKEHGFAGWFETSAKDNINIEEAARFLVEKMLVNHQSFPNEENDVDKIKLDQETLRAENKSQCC
Briefly: crystal structure; sitting drop vapor diffusion at 18°C, PEG 3350, 200 mM sodium citrate pH 8.0; molecular replacement.

A word on the Kd: it is the equilibrium constant for the complex coming apart. Read a low Kd as tighter binding.

T1 sequence (Q96NW4 397-650): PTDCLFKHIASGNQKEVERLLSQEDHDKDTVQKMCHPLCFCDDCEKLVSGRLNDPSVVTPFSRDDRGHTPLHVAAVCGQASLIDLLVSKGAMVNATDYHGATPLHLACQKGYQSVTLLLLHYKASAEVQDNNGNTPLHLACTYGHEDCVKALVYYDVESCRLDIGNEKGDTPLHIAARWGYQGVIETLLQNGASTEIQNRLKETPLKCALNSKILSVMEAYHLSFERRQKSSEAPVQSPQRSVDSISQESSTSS

B1: VARP fragment with the second Cys-rich motif, 4C2 (C711S/C715S/C717S/C720S), as used in ITC (domain or fragment)
chain: TEEDLEDAEDTVSAADPEFSHPLSQSPKSAPAQKRLAKVPASGLGVNVTSQDGSS
notes: VARP; source: E. coli, purified
For the molecule B1, the “fold decrease in binding against the wild-type fragment” value in experiment [1] was around 20 fold.
Regarding B2, the Kd in experiment [2] was found to be 7 µM.

B3: VARP451-640His6 L513D (domain or fragment, human, UniProt Q96NW4 451-640, looked up)
chain: PSVVTPFSRDDRGHTPLHVAAVCGQASLIDLLVSKGAMVNATDYHGATPLHLACQKGYQSVTDLLLHYKASAEVQDNNGNTPLHLACTYGHEDCVKALVYYDVESCRLDIGNEKGDTPLHIAARWGYQGVIETLLQNGASTEIQNRLKETPLKCALNSKILSVMEAYHLSFERRQKSSEAPVQSPQRSVD
notes: source: E. coli Rosetta 2 pLysS, purified; not shown: His6, C-terminal, kept
As for B3, the Kd in experiment [3] was above 300 µM.

B4: VARP451-640His6 Y550A (domain or fragment, human, UniProt Q96NW4 451-640, looked up)
chain: PSVVTPFSRDDRGHTPLHVAAVCGQASLIDLLVSKGAMVNATDYHGATPLHLACQKGYQSVTLLLLHYKASAEVQDNNGNTPLHLACTYGHEDCVKALVAYDVESCRLDIGNEKGDTPLHIAARWGYQGVIETLLQNGASTEIQNRLKETPLKCALNSKILSVMEAYHLSFERRQKSSEAPVQSPQRSVD
notes: also called VARP(Y550A); source: E. coli Rosetta 2 pLysS, purified; not shown: His6, C-terminal, kept
On to B4, for which the Kd in experiment [3] is around 22 µM.

B5: VARP451-640His6 (first ankyrin repeat domain, ANKRD1), wild type (domain or fragment, human, UniProt Q96NW4 451-640, looked up)
chain: PSVVTPFSRDDRGHTPLHVAAVCGQASLIDLLVSKGAMVNATDYHGATPLHLACQKGYQSVTLLLLHYKASAEVQDNNGNTPLHLACTYGHEDCVKALVYYDVESCRLDIGNEKGDTPLHIAARWGYQGVIETLLQNGASTEIQNRLKETPLKCALNSKILSVMEAYHLSFERRQKSSEAPVQSPQRSVD
notes: VARP (VPS9-domain ankyrin repeat protein); also called VARP ANKRD1; VARP-ANKR domain 1; source: E. coli Rosetta 2 pLysS, purified (GSH-sepharose, PreScission cleavage, Ni-NTA agarose, Superdex 75); not shown: His6, C-terminal, kept
As to B5, the binding result in experiment [4] is reported as “binds”. The molecule also registered a Kd in experiment [3] of 2.5 µM.

B6: VARP451-640His6 K546D (domain or fragment, human, UniProt Q96NW4 451-640, looked up)
chain: PSVVTPFSRDDRGHTPLHVAAVCGQASLIDLLVSKGAMVNATDYHGATPLHLACQKGYQSVTLLLLHYKASAEVQDNNGNTPLHLACTYGHEDCVDALVYYDVESCRLDIGNEKGDTPLHIAARWGYQGVIETLLQNGASTEIQNRLKETPLKCALNSKILSVMEAYHLSFERRQKSSEAPVQSPQRSVD
notes: also called VARP(K546D); source: E. coli Rosetta 2 pLysS, purified; not shown: His6, C-terminal, kept
B6 registered a Kd in experiment [3] of around 8 µM.
